{"source": "patent US20100272685A1", "key": {"[1]": {"molecular_target": "AAV2/5 vector particle (AAV5 capsid proteins VP1, VP2, VP3) (adeno-associated virus 5)", "test": "cell-based or functional assay"}, "[2]": {"molecular_target": "AAV2/po1 hybrid vector particle (AAVpo1 capsid of VP1, VP2, VP3) (porcine adeno-associated virus AAVpo1)", "test": "cell-based or functional assay"}}}
{"substance": "Pooled Human Ig (Immune Globulin Intravenous (Human) Carimune NF)", "values": [{"measurement": "concentration of the pooled Human Ig required to neutralise >50% of AAV-LacZ particles", "setting": "[1]", "result": "7.5e-05", "unit": "mg/mL"}, {"measurement": "concentration of the pooled Human Ig required to neutralise >50% of AAV-LacZ particles", "setting": "[2]", "result": "> 12", "unit": "mg/mL"}]}
